Assay [1] has as its target T1, KDR/flk-1 receptor on 293/KDR or PAE/KDR cells (UniProt P35968 20-1356, limits assumed).
T1 construct: whole, on cells; also called cellular KDR/flk-1 receptors
In words: Scatchard analysis on 293/KDR cells.

In assay [2] the target is T1, KDR/flk-1 receptor on 293/KDR or …. In words: Scatchard analysis of 125I-labelled protein binding to 293/KDR cells.
For assay [3], the target named is T2, soluble KDR-Fc receptor (human, UniProt P35968 20-764, limits assumed).
T2 construct: extracellular domain; also called soluble, secreted extracellular domain of the KDR/flk-1 receptor fused to the Fc portion of human IgG; not shown: Fc portion of human IgG
T2 sequence (P35968 20-764 limits assumed): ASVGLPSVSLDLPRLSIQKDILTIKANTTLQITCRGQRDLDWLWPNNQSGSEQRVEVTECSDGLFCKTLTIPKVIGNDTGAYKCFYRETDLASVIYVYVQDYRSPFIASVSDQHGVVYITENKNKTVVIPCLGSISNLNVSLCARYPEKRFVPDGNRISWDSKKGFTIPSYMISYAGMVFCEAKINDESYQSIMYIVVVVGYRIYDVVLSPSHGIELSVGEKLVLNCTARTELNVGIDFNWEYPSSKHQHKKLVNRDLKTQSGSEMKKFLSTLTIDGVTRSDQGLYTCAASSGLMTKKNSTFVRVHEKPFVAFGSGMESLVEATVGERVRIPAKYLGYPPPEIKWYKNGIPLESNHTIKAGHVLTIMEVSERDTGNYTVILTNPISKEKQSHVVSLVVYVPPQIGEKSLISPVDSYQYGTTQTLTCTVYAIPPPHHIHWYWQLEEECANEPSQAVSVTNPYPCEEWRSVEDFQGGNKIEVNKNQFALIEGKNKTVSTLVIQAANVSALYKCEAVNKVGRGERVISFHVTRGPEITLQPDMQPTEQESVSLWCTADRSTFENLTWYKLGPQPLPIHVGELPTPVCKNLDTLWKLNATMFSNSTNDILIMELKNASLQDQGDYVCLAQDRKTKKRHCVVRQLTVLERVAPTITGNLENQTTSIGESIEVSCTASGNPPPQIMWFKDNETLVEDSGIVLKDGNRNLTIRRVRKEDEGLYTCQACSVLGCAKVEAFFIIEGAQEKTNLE
Kind of assay: competition with 125I-VEGF165 for soluble KDR-Fc.

The target of assay [4] is T1, KDR/flk-1 receptor on 293/KDR or …. Described as described in Example 1.G.2 (binding to KDR/flk-1).

As a reminder, the Kd is the free concentration of one partner at which half of the binding sites on the other are occupied at equilibrium, for simple one-to-one binding. Low readings indicate tighter binding, high ones weaker binding.

T1 sequence (P35968 20-1356 limits assumed): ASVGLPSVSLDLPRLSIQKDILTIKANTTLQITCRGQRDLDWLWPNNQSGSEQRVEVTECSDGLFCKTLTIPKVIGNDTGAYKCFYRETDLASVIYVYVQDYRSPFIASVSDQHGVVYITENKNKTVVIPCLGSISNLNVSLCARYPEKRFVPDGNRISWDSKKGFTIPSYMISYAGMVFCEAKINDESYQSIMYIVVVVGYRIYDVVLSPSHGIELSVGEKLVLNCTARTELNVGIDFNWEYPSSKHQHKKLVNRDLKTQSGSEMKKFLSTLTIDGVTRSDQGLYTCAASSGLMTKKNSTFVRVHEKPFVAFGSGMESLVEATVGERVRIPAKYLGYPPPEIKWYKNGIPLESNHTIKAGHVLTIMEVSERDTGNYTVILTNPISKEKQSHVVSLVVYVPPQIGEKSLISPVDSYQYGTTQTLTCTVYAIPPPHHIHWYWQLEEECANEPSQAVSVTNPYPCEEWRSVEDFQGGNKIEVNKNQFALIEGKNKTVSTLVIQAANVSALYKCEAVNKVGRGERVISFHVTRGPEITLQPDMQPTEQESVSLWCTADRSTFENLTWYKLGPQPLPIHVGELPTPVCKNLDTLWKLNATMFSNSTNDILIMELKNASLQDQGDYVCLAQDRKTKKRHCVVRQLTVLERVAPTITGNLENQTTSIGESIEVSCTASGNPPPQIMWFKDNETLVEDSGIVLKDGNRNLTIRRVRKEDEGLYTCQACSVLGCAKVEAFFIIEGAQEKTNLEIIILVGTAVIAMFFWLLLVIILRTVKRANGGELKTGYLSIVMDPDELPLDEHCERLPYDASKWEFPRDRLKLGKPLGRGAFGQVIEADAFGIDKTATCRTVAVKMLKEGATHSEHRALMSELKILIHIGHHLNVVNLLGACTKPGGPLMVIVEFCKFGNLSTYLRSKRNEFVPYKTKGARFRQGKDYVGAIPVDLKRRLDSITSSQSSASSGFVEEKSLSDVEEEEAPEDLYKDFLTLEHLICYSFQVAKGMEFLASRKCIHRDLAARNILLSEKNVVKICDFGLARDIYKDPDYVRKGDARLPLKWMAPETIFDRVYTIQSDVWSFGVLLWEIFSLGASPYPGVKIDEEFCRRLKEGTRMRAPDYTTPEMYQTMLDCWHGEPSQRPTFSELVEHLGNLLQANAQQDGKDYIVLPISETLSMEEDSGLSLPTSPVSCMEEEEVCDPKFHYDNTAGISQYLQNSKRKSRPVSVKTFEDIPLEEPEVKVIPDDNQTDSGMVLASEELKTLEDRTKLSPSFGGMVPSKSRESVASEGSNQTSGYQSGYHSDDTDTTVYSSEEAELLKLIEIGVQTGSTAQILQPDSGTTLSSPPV

B1: txFVEGF121 fusion protein (ligand, human, UniProt P15692-9 27-147, looked up, not shown: large carriers)
chain: APMAEGGGQNHHEVVKFMDVYQRSYCHPIETLVDIFQEYPDEIEYIFKPSCVPLMRCGGCCNDEGLECVPTEESNITMQIMRIKPHQGQHIGEMSFLQHNKCECRPKKDRARQEKCDKPRR
modifications: 125I label in the Scatchard experiment
notes: mature; also called txVEGF121
On to B1, for which, in assay [1], the “fold lower affinity than VEGF165” value is about 10 fold. Besides, in assay [2], the Kd was found to be 3.5 nM.

B2: txFVEGF189 fusion protein (ligand, human, UniProt P15692-2 27-215, looked up, not shown: large carriers)
chain: APMAEGGGQNHHEVVKFMDVYQRSYCHPIETLVDIFQEYPDEIEYIFKPSCVPLMRCGGCCNDEGLECVPTEESNITMQIMRIKPHQGQHIGEMSFLQHNKCECRPKKDRARQEKKSVRGKGKGQKRKRKKSRYKSWSVPCGPCSERRKHLFVQDPQTCKCSCKNTDSRCKARQLELNERTCRCDKPRR
notes: mature; also called txVEGF189
On to B2, for which the binding result in assay [3] and in assay [4] was “binds” throughout.
